{"source": "paper PMC7789494", "proteins": {"B1": {"name": "PcCDHTr (Phanerodontia chrysosporium) (protein)", "chain": "QSASQFTDPTTGFQFTGITDPVHDVTYGFVFPPLATSGAQSTEFIGEVVAPIASKWIGIALGGAMNNDLLLVAWANGNQIVSSTRWATGYVQPTAYTGTATLTTLPETTINSTHWKWVFRCQGCTEWNNGGGIDVTSQGVLAWAFSNVAVDDPSDPQSTFSEHTDFGFFGIDYSTAHSANYQNYLNGDSGNPTTTSTKPTSTSSSVTTGPTVSATPYDYIIVGAGPGGIIAADRLSEAGKKVLLLERGGPSTKQTGGTYVAPWATSSGLTKFDIPGLFESLFTDSNPFWWCKDITVFAGCLVGGGTSVNGALYWYPNDGDFSSSVGWPSSWTNHAPYTSKLSSRLPSTDHPSTDGQRYLEQSFNVVSQLLKGQGYNQATINDNPNYKDHVFGYSAFDFLNGKRAGPVATYLQTALARPNFTFKTNVMVSNVVRNGSQILGVQTNDPTLGPNGFIPVTPKGRVILSAGAFGTSRILFQSGIGPTDMIQTVQSNPTAAAALPPQNQWINLPVGMNAQDNPSINLVFTHPSIDAYENWADVWSNPRPADAAQYLANQSGVFAGASPKLNFWRAYSGSDGFTRYAQGTVRPGAASVNSSLPYNASQIFTITVYLSTGIQSRGRIGIDAALRGTVLTPPWLVNPVDKTVLLQALHDVVSNIGSIPGLTMITPDVTQTLEEYVDAYDPATMNSNHWVSSTTIGSSPQSAVVDSNVKVFGTNNLFIVDAGIIPHLPTGNPQGTLMSAAEQAAAKILALAGGP", "notes": "full two-domain flavocytochrome, native signal peptide (cleaved), untagged, secreted by Trichoderma reesei delta-xyr1; 83 kDa by SDS-PAGE"}}, "substrate": "O=C1C(Cl)=CC(=Nc2ccc(O)cc2)C=C1Cl", "experiment": "purified protein", "format": "biochemical, Phanerodontia chrysosporium", "details": "500 µM cellobiose, 50 mM sodium acetate pH 4.5, electron acceptor", "data": [{"protein": "B1", "values": [{"measurement": "Km", "value": "4.31 ± 0.11", "unit": "µM"}, {"measurement": "kcat", "value": "24.4 ± 0.2", "unit": "s⁻¹"}, {"measurement": "kcat/Km", "value": "5.66e+06 ± 159000", "unit": "M⁻¹ s⁻¹"}]}]}
